Values of other authors as cited in paper PMC11381654.

Target: IL-4Rα (Homo sapiens) (UniProt P24394)

dupilumab
Kd: 0.033 nM
